Measurements published in PMC5993284, “Peptide inhibitors of the anaphase promoting-complex that cause sensitivity to microtubule poison” (PLoS ONE, 2018).
Entries after “also recorded” stand apart in the source; their conditions may differ.

Legend:
APC/C^Cdh1 = APC/C^Cdh1 enzyme assay (ubiquitination of 35S-Pds1); assay type: biochemical, Saccharomyces cerevisiae; conditions: 220 μM peptide; 35S-Pds1 substrate; time course 0-60 minutes; vs buffer; n = 3
Description: Full-length, radio-labeled protein purifications were preformed as previously described. ^35S-Pds1 was prepared in a 500 μL IVT/T (In Vitro Transcription/Translation) reaction (Promega, USA), which contained 400 μL rabbit reticulocyte lysate, 20 μL of L-^35S-methionine (PerkinElmer, USA), 10 μg of plasmid DNA, and the remaining volume as nuclease-free ddH2O as recommended by the manufacturer. The reaction mixture was incubated for 2 hours at room temperature and gently mixed every 30 minutes. The reaction was added to pre-equilibrated IgG Sepharose beads (GE Healthcare, USA) in Bio-spin disposable chromatography columns (Bio-Rad, USA) for binding for 2 hours at room temperature. To ensure efficient binding, the beads were re-suspended several times every 30 minutes. After binding, the beads were washed with 5 mL wash buffer, containing 200 mM 4-(2-hydroxyethyl)-1-piperazineethanesulfonic acid (HEPES) at pH 8.0, 150 mM NaCl, 10% (v/v) glycerol, and 1 mM dithiothreitol (DTT). The ^35S-Pds1 was cleaved from the beads using TEV (Tobacco Etch Virus) protease in 1x TEV buffer (Invitrogen, USA) for 2 hours at room temperature, and the mixture was re-suspended several times every 30 minutes to promote efficient cleavage. The elution was collected and concentrated by employing an Amicon Ultra filter column (Millipore, Ireland). The concentrated ^35S-Pds1 was collected in a new tube, and stored at -20 °C.
(§1) The production of Cdc20 or Cdh1 was prepared by IVT/T reactions, where 16 μL of rabbit reticulocyte lysate, 20 μM L-methionine, 0.4 μg of plasmid DNA, and a volume of nuclease-free ddH2O for a total volume of 20 μL. This freshly synthesized Cdc20 or Cdh1 protein was used directly in all APC/C assays after a 1-hour synthesis reaction at room temperature. The APC/C was purified for enzyme assays from 1 mL of TAP-tagged Cdc16 yeast extract (SCSY51) where extract was mixed with 50 μL 50:50 slurry magnetic beads (Invitrogen, Norway) for 2 hours at 4 °C. After incubation, the beads were washed with 3 mL APC/C wash buffer (200 mM of HEPES, 150 mM of NaCl and 10% (v/v) of glycerol). APC/C bound to IgG magnetic beads was used directly in the enzyme assays.
APC/C assays were performed by adding the reaction contents in following order: 4.3 μL of QAH buffer, 20 μL of rabbit reticulocyte lysate containing Cdc20 or Cdh1 with or without an additional volume of recombinant checkpoint protein(s) or inhibitor peptides, 2.4 μL ubiquitin aldehyde (Boston Biochem, USA), APC/C, 16 μL pre-charged E1/E2/ATP/ubiquitin mix, and 13.3 μL of ^35S-Pds1 with QAH buffer (20 mM HEPES at pH 8.0, 100 mM NaCl, and 1 mM MgCl2). […]

APC/C^Cdc20 = target: T1, APC/C^Cdc20 (Saccharomyces cerevisiae, UniProt P16522+P53886); assay: biochemical; assay type: biochemical; conditions: 220 μM peptide; 35S-Pds1 substrate; time course 0-60 minutes; vs buffer only; n = 3
T1 construct: constructed within full-length Cdc20 by site-directed mutagenesis for analysis in vitro in the APC/C^Cdc20 assay; The APC/C was purified for enzyme assays from 1 mL of TAP-tagged Cdc16 yeast extract (SCSY51); made in house; host or cells: Cdc20: in vitro transcription/translation in rabbit reticulocyte lysate, used unpurified; APC/C: S. cerevisiae strain SCSY51 (Cdc16-TAP) extract, captured on IgG magnetic beads
Outline: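 Bead-bound TAP-Cdc16 yeast APC/C was mixed with IVT-made Cdc20 or Cdh1, pre-incubated 1 h at rt with checkpoint proteins or inhibitor peptides, plus pre-charged E1/E2/ATP/ubiquitin and ^35S-Pds1 in 20 mM HEPES pH 8.0, 100 mM NaCl, 1 mM MgCl2. Time points were stopped in SDS buffer and resolved by SDS-PAGE.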

APC/C [1] = assay: Biotinylated peptide pull-down of purified APC/C, Western blot; assay type: binding, Saccharomyces cerevisiae; conditions: 20 μM biotinylated peptide, purified yeast APC/C, 1 h at 4 °C, streptavidin/Avidin beads, n = 3
Description: For APC/C purification, the APC/C which contain Cdc16-TAP-tag was isolated from 2 mL arrested yeast lysate by 120 μL IgG sepharose 6 Fast Flow beads (GE Healthcare Life Sciences) and incubate for 2 h at 4 °C on a rotating wheel. Beads were collected washed with 5 mL of APC/C wash buffer (200 mM Hepes pH8.0, 150 mM NaCl, 10% glycerol). Beads were resuspended in 150 μL of APC/C wash buffer contain 17.6 units of AcTEV protease (Invitrogen, Carlsbad, CA) at 4°C for 3 h with pipetting every 20 minutes. The purified APC/C was collected in the flow-through.
For APC/C binding assays, 20 μM biotinylated peptides or 20 μM peptides only as a negative control were incubated with purified APC/C and 100 μL APC/C wash buffer which contains phosphatase inhibitors (200 mM Hepes pH 8.0, 150 mM NaCl, 10% glycerol, 10 mM NaF, 1 mM NaVO4, 5 mM Na-pyrophosphate, 10 mM 2-glycerol phosphate) for 1 h at 4 °C. The mixtures were applied to 120 μL streptavidin beads (Dynabeads MyOne Streptavidin T1, Invitrogen) for 30 min at 4 °C with gentle pipetting every 10 min. Beads were washed with 1 mL of PBST buffer (Phosphate buffer saline and 0.1% Tween 20) three times SDS-PAGE protein sample was added directly. For APC/C binding competition experiments, the biotinylated peptide and 10-fold excess non-biotinylated peptides were added to purified APC/C at same time.
Free D-biotin in 10% DMSO was used for the control binding assays. For pre-coating APC/C with biotin, a modified APC/C purification was performed. 2 mL yeast lysate was incubated with 120 μL IgG Sepharose beads and additional 20.4 μM free biotin or non-biotin solvent as a positive control was added and samples were incubated for 2 h at 4 °C on a rotating wheel. Purified pre-coated APC/C was then removed from the IgG Sepharose following the standard purification procedure. 20 μM biotinylated peptides or 20 μM peptides as a negative control were incubated with pre-coated APC/C and 100 μL APC/C wash buffer which contain phosphatase inhibitors for 1 h at 4 °C. In addition, 20 μM biotinylated peptide was added and incubated with pre-coated APC/C in a non-biotin containing solvent as positive control. Pre-coated APC/C binding procedures were same as above. For pre-coating streptavidin beads with biotin, streptavidin beads were washed in the presence of 10.2 nmol/mL D-biotin in PBST buffer or non-biotin solvent as a positive control before use. Pre-coated streptavidin beads were incubated with purified APC/C-peptide complexes with an extra […] biotin for 30 minutes with gentle pipetting every 10 min at 4 °C.
Proteins were separated in SDS-PAGE gels and then were transferred to PVDF membrane. Blocking was performed by incubating samples in 20 mL PBST with 5% milk at 4 °C. Rabbit anti-tap (Thermo, CAB1001) was used as primary antibodies at a 1:1000 dilution and incubated for 2 hours at RT. Anti-rabbit HRP (Jackson, USA) was then used as secondary antibody at 1:5000 dilution and incubate for 1 hr at RT. Chemiluminescence signals were detected using an ImageQuant LAS 4000 (GE Healthcare Bio-Sciences, USA). For cell cycle timing Western blots anti-MYC and anti-Actin antibodies were employed (ABCAM, UK).

APC/C [2] = assay: APC/C activity promoted by mutant Cdc20 alleles in the presence of Mad2 (Pds1 remaining); assay type: biochemical, Saccharomyces cerevisiae; conditions: 5.0 μM Mad2, n = 3
Description: as §1
APC/C assays were performed by adding the reaction contents in following order: 4.3 μL of QAH buffer, 20 μL of rabbit reticulocyte lysate containing Cdc20 or Cdh1 with or without an additional volume of recombinant checkpoint protein(s) or inhibitor peptides, 2.4 μL ubiquitin aldehyde (Boston Biochem, USA), APC/C, 16 μL pre-charged E1/E2/ATP/ubiquitin mix, and 13.3 μL of ^35S-Pds1 with QAH buffer (20 mM HEPES at pH 8.0, 100 mM NaCl, and 1 mM MgCl2). The E1/E2/ATP/ubiquitin mix were pre-charged by mixing 1 μL of E1 (Boston Biochem, USA), 1 μL of E2 (Boston Biochem, USA), 14.4 μL of ATP, 14.4 μL of […] (Boston Biochem, USA), and 17.2 μL of QAH buffer and incubated for 15 minutes at room temperature. Approximately 15 μL of samples were taken out at each time point, and the reaction was stopped by the addition of 2x protein sample buffer (125 mM Tris-HCl pH 6.8, 4% SDS, 20% glycerol, and 0.002% bromophenol blue, with 10% (final v/v) 2-mercaptoethanol added in fresh directly before use).
For inhibitor titration and time-course experiments, recombinant Bub3, Mad2, Mad3, and the Mad3-Bub3 complex were expressed and purified as previously described. Inhibitory peptides were synthesized by standard procedures and purified to 99% purity by HPLC (Kelowna International Scientific Inc., Taiwan). For inhibition of APC/C the co-factor Cdc20 or Cdh1 was made fresh by IVT/T, and pure recombinant checkpoint proteins or inhibitor peptides were added to the IVT/T mixture and incubated for an additional hour at room temperature. In titrations, a dilution series of the checkpoint protein(s) were made before incubation with the Cdc20 co-factor. […]
Our first goal was to measure the ability of the mutant alleles to promote APC/C activity in vitro. To ensure any observed change in APC/C activity reflected a change in function, and not a change in the amount of Cdc20 co-factor protein produced by IVT/T, the amounts of Cdc20 protein produced by IVT/T was measured, and no significant difference was observed (S4 Table). […]

## hp31: 39 amino acid residue human peptide derived from human p31^comet amino acid residues 219–258 (RNCGEDWFRPKLNYRVPSRGHKLTVTLSCGRPSIRTTAWE; UniProt Q15013 219-258, looked up, fragment)
APC/C^Cdh1
  inhibition of APC/C^Cdh1 activity (in words): inhibited both budding yeast APC/C^Cdc20 (Fig 13B) and APC/C^Cdh1; also recorded: inhibits yeast APC/C^Cdh1
APC/C^Cdc20
  inhibition of APC/C^Cdc20 activity (in words): inhibited both budding yeast APC/C^Cdc20; also recorded: inhibits yeast APC/C^Cdc20
APC/C [1]
  binding to APC/C (in words): bound to budding yeast APC/C directly; also recorded: can pull-down budding yeast APC/C at 20 μM peptide

B1: Cdc20-106 (P209Q): spindle checkpoint by-pass mutant allele of Cdc20, P209Q (protein)
chain: MPESSRDKGNAAISGNRSVLSIASPTKLNILSSDWSRNQGKVSKNSLKRSSSLNIRNSKRPSLQASANSIYSRPKITIGAPPLIRRDSSFFKDEFDAKKDKATFSAYSSRSYPTIGSESVVSQTSLSQPTTSREVDEQFTVAADRYIPILQGASQNKVDPETLHEALPPPNASPISHLRAQTKIVFKQNVAEACGLDMNKRILQYMPEQPKCSSLRQKSYIMKKRTHYSYQQEQKIPDLIKLRKINTNPERILDAPGFQDDFYLNLLSWSKKNVLAIALDTALYLWNATTGDVSLLTDFENTTICSVTWSDDDCHISIGKEDGNTEIWDVETMSLIRTMRSGLGVRIGSLSWLDTLIATGSRSGEIQINDVRIKQHIVSTWAEHTGEVCGLSYKSDGLQLASGGNDNTVMIWDTRTSLPQFSKKTHTAAVKALSWCPYSPNILASGGGQTDKHIHFWNSITGARVGSINTGSQVSSLHWGQSHTSTNGGMMNKEIVATGGNPENAISVYNYETKFKVAEVVHAHEARICCSQLSPDGTTLATVGGDENLKFYKIFDPRCTGRSREDGLMDGMLGLIGKEGCRTNDKENRSKNSSEIHTRRPSSTSQYLIR
APC/C [2]
  ability of mutant Cdc20 to promote APC/C activity in the presence of Mad2 (in words): consistently displayed APC activity in the presence of Mad2
APC/C [2]; listed as Cdc20-106
  ability of mutant Cdc20 to promote APC/C activity in the presence of Mad2 (in words): promote APC/C activity at the same level as control reactions even in the presence of 5.0 μM Mad2
